First the molecules themselves.
T1: Macaca fascicularis CD40 (Macaca fascicularis (cynomolgus monkey), UniProt P25942 21-277 (human entry))
T1 chain: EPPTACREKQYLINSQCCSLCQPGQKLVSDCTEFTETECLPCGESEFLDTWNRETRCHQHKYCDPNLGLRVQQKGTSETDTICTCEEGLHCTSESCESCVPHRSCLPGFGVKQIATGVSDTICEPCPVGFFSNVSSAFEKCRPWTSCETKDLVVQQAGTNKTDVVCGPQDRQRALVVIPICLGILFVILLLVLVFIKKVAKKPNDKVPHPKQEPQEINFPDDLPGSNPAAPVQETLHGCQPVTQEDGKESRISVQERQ

T2: wild type cynomolgus monkey CD40 Fc fusion (cynomolgus monkey; human)
T2 construct: also called wt-cyno-CD40; wt-cCD40; not shown: human IgG1 Fc
T2 chain: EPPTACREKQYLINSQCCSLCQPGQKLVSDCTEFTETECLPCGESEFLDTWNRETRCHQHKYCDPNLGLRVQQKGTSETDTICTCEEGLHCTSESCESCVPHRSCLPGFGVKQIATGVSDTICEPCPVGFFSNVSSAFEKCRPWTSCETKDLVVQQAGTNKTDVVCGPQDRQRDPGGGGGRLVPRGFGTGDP

T3: human CD40 (H76R, W109L, L121P) Fc fusion (human)
T3 construct: As m1 with H76R, W109L and L121P; also called hCD40-M5; not shown: human IgG1 Fc
T3 chain: T2 chain with S95A, L106S, R142H, Q172L

B1: BMS3h-56-201 (other)
VH: EVQLLESGGGLVQPGGSLRLSCAASGFTFRDYEMWWVRQAPGKGLERVSAINPQGTRTYYADSVKGRFTISRDNSKNTLYLQMNSLRAEDTAVYYCAKLPFYFQEWGQGTLVTVSS
notes: domain antibody (dAb): single human VH domain
B2: BMS3h-56-203 (other)
VH: B1 VH with Y102F, Q104E
notes: as for B1
B3: BMS3h-56-215 (other)
VH: B1 VH with Q54H, T56S, R57L, Y102T, Q104D, E105D
notes: as for B1
B4: BMS3h-38 (other)
VH: EVQLLESGGGLVQPGGSLRLSCAASGFTFEEEEMIWVRQAPGKGLEWVSAISGSGGSTYYADSVKGRFTISRDNSKNTLYLQMNSLRAEDTAVYYCAKEPFRFDYWGQGTLVTVSS
B5: BMS3h-38-2 (other)
VH: B4 VH with E6A, A97G, F103Y
B6: BMS3h-131 (other)
VL: DIQMTQSPSSLSASVGDRVTITCRANSSILWALAWYQQKPGKAPKLLIESSSGLQSGVPSRFSGSGSGTDFTLTISSLQPEDFATYYCVQNAGWPGTFGQGTKVEIKR
notes: dAb, single VK
B7: BMS3h-202 (other)
VH: EVQLLESGGGLVQPGGSLRLSCAASGFTFPTAEMVWVRQAPGKGLEWVSSISASGGSTYYADSVKGRFTISRDNSKNTLYLQMNSLRAEDTAVYYCAKEPVSYVATFDYWGQGTLVTVSS
notes: dAb, single VH
B8: BMS3h-56 (other)
VH: B1 VH with Y102I, Q104D, E105Y
notes: dAb, single VH
B9: BMS3h-37 (other)
VH: B4 VH with E31W, E32Y, I35Q, S54D, G56Y, S57R, P100L, F101G, R102Y
notes: dAb, single VH
B10: BMS3h-38 (other)
VH: B4 VH
notes: dAb, single VH
B11: BMS3h-41 (other)
VH: B4 VH with E30T, E32Y, A50S, S54N, G56A, S57N, F101L
notes: dAb, single VH
B12: BMS3h-197 (other)
VH: EVQLLESGGGLVQPGGSLRLSCAASGFTFGSAAMDWVRQAPGKGLEWVSSINDMGSNTYYADSVKGRFTISRDNSKNTLYLQMNSLRAEDTAVYYCAKQGGRFDYWGQGTLVTVSS
notes: dAb, single VH
B13: BMS3h-193 (other)
VL: DIQMTQSPSSLSASVGDRVTITCRASQTIERRLNWYQQKPGKAPKLLIYLASRLQSGVPSRFSGSGSGTDFTLTISSLQPEDFATYYCHQYASPPLTFGQGTKVEIKR
notes: dAb, single VK
B14: BMS3h-56-206 (other)
VH: B1 VH with Y95H, F101M, Y102F, Q104E, E105D, S116N
B15: BMS3h-56-202 (other)
VH: B1 VH with F101T, Q104S, E105D, W106R
B16: BMS3h-56-1 (other)
VH: B1 VH with Y102T, Q104E, E105D
notes: domain antibody (dAb), single VH domain; also called 3h-56-l
B17: BMS3h-56-217 (other)
VH: B1 VH with Q54W, T56S, R57L, Y102T, Q104E, E105D
notes: domain antibody (dAb), single VH domain
B18: BMS3h-56-5 (other)
VH: B1 VH with K65M, Y102T, Q104D, E105D
notes: as for B17
B19: BMS3h-56-2 (other)
VH: B1 VH with Y102T, Q104D, E105D
notes: as for B17
B20: BMS3h-56-206 (other)
VH: B1 VH with Y95H, F101M, Y102F, Q104E, E105D, S116N
notes: as for B17
B21: BMS3h-56-202 (other)
VH: B1 VH with F101T, Q104S, E105D, W106R
notes: as for B17
B22: DMS0662 DOM7h-11-90-TVAAPS-BMS3h-56-201 (bispecific antibody)
chain: DIQMTQSPSSLSASVGDRVTITCRASRPIGTMLSWYQQKPGKAPKLLILAFSRLQSGVPSRFSGSGSGTDFTLTISNLQPEDFATYYCAQAGTHPTTFGQGTKVEIKRTVAAPSEVQLLESGGGLVQPGGSLRLSCAASGFTFRDYEMWWVRQAPGKGLERVSAINPQGTRTYYADSVKGRFTISRDNSKNTLYLQMNSLRAEDTAVYYCAKLPFYFQEWGQGTLVTVSS
notes: AlbudAb inline fusion (ILF): an anti-CD40 dAb and an anti-serum-albumin dAb joined by a linker in one polypeptide
B23: DMS0663 DOM7h-11-86-TVAAPS-BMS3h-56-201 (bispecific antibody)
chain: B22 chain with N77S, F83V
notes: as for B22

Changes are numbered by the printed parent chain. “And” between values parts separate entries of the source, which are not always exact repeats. Identical values can stand only once. Bounds are passed on as bounds.

The values that follow come from patent publication US20200199244A1 (published 2020).

T7 sequence (A2V9Z4 25-608 limits assumed): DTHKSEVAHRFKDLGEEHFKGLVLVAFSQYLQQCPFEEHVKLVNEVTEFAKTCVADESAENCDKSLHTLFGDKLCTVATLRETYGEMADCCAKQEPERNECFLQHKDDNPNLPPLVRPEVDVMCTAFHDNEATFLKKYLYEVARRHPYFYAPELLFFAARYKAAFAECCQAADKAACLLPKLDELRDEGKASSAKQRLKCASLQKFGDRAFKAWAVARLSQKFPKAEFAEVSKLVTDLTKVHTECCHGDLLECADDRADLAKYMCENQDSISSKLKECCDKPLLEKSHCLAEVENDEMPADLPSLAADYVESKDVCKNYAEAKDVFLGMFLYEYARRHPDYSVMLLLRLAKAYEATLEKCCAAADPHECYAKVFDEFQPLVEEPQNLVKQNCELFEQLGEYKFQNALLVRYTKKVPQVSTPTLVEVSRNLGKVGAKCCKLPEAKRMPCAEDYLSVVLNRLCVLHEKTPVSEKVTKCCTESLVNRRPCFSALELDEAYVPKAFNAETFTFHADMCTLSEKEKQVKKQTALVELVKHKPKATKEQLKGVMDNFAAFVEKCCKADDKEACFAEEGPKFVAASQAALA

The first test deals with T4, human CD40 (BMS, CY24FEB06-01) (human, UniProt P25942 21-193).
T4 construct: Soluble human CD40 reagent of the ELISA RBA
In words: ELISA RBA, competition with IZ-CD40L for soluble human CD40.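 Note: Neutravidin-coated 384-well plates, dAb–human CD40 complex incubated 2 h at room temperature, read-out as absorbance at 450 nm.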 For orientation: An ELISA detects its analyte on a solid surface through an enzyme-linked reagent.
The term EC50 denotes the concentration needed to bring the measured effect to its halfway point. On to B1, for which the EC50 was 3.7 nM and 2.3 nM.
With B2, the EC50 was 5.2 nM and 4.3 nM.
As to B3, the EC50 was 3.2 nM and 4.6 nM.

For the next test, the target named is human CD40 (human, UniProt P25942 21-277). In words: cell-based or functional assay.
In the case of B4, the “hIZCD40L-driven Human B Cell Proliferation EC50” value was determined as 2800 nM.
Turning to B5, the “CHO-hCD40L-driven DC Activation IL-12 EC50” value was determined as 289 nM, the “CHO-hCD40L-driven Human B Cell Proliferation EC50” value was 723 nM, the “T-B cell MLR EC50” value was 986 nM and the “hIZCD40L-driven Human B Cell Proliferation EC50” value stood at 10 nM.

A further test concerns the target T1, Macaca fascicularis CD40. The test is described as follows: cell-based or functional assay.
As to B4, the “hIZCD40L-driven Cyno B Cell Proliferation EC50” value was above 7000 nM.
Consider B5, for which the “hIZCD40L-driven Cyno B Cell Proliferation EC50” value is above 7000 nM.

The next test addresses T5, human CD40 (BMS, CY24FEB06-01) (human, UniProt P25942 21-193).
T5 construct: Soluble reagent of the bead and ELISA RBA; It is detected with an anti-human IgG (Fc) mAb, so it may be a CD40-Ig fusion
The test is described as follows: bead RBA, competition with IZ-CD40L.
B6: the EC50 was 500 nM and > 1000 nM.
Take B7: the EC50 is 3700 nM and 3000 nM.
With B8, the EC50 is 1000 nM and 500 nM.
B9: the EC50 is 100 nM and 200 nM.
Consider B10, for which the EC50 is 600 nM and 650 nM.
Turning to B11, the EC50 is 2000 nM and 1600 nM.
In turn, B12 returned a concentration giving a half-maximal response (EC50) of 30 nM.
As for B13, the EC50 was found to be 1000 nM.

Another test deals with human CD40 on RAMOS human B cells (human, UniProt P25942 21-277). The test is described as follows: cell-based or functional assay.
In the case of B1, the “EC50 ICAM1 cell assay” value was 10 nM.
Consider B14, for which the “EC50 ICAM1 cell assay” value was 5 nM.
For B15, the “EC50 ICAM1 cell assay” value is 80 nM.
For the molecule B2, the “EC50 ICAM1 cell assay” value was found to be 70 nM.
As for B3, the “EC50 ICAM1 cell assay” value turned out to be 40 nM.

A further test concerns the target T6, human CD40 (W109L, L121P) Fc fusion (human, UniProt P25942 21-193).
T6 construct: As m1 with W109L and L121P; also called hCD40-M4; not shown: human IgG1 Fc
The test is described as follows: SPR ProteOn XPR36.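 Note: surface plasmon resonance with CD40-Fc fusions captured through their Fc on an anti-human IgG chip, sensorgrams reference-subtracted against surfaces lacking CD40-Fc.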
As to B16, the binding result is given as “no binding (tested: 405 nM)”.
As to B17, the binding result is recorded as “no binding (tested: 405 nM)”.
As for B18, the binding result is listed as “no binding (tested: 405 nM)”.
B19: the binding result is “no binding (tested: 405 nM)”.
B20: the binding result is “no binding (tested: 405 nM)”.
B21: the binding result is recorded as “no binding (tested: 405 nM)”.

A further test addresses T2, wild type cynomolgus monkey CD40 Fc …. The test is described as follows: SPR ProteOn XPR36.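 Note: surface plasmon resonance with CD40-Fc fusions captured through their Fc on an anti-human IgG chip, sensorgrams reference-subtracted against surfaces lacking CD40-Fc.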
Protocol: (§1) Assays were performed on a BioRad ProteOn XPR36 SPR instrument. The SPR surfaces were prepared by immobilizing 8 μg/ml anti-human IgG(Fc) antibody (Biacore/GE Healthcare) in 10 mM sodium acetate pH 4.5 on a BioRad GLC sensor chip using standard ethyl(dimethylaminopropyl) carbodiimide (EDC)/N-hydroxysuccinimide (NHS) chemistry, with ethanolamine blocking. The running buffer for immobilization and kinetic binding analysis was 10 mM sodium phosphate, 130 mM sodium chloride, 0.05% tween 20, pH 7.1. CD40-Fc fusion proteins at concentrations of 20 μg/ml were captured in the vertical orientation on these surfaces via the Fc tail, and reference surfaces lacking CD40-Fc proteins were used for reference subtraction. […] The surfaces were regenerated in both horizontal and vertical orientations with 30 s pulses of 3 M MgCl₂ followed by running buffer at 60 μl/min. Sensogram data was double-referenced and then fitted to a 1:1 Langmuir model using BioRad ProteOn Manager V.2.1.0.38 software, to determine the association rate constant (ka), the dissociation rate constant (kd), and the equilibrium dissociation constant (KD).
As for B16, the binding result is listed as “no binding (tested: 405 nM)”.
Turning to B17, the binding result was “no binding (tested: 405 nM)”.
Take B18: the binding result is given as “no binding (tested: 405 nM)”.
For the molecule B19, the binding result is given as “no binding (tested: 405 nM)”.
As for B20, the binding result is listed as “no binding (tested: 405 nM)”.
Regarding B21, the binding result is given as “no binding (tested: 405 nM)”.

For another test, the target named is T3, human CD40 (H76R, W109L, L121P) Fc …. In words: SPR ProteOn XPR36.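 Note: surface plasmon resonance with CD40-Fc fusions captured through their Fc on an anti-human IgG chip, sensorgrams reference-subtracted against surfaces lacking CD40-Fc.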
Protocol: as §1
In the case of B16, the binding result is on record as “no binding (tested: 405 nM)”.
As to B17, the binding result is “no binding (tested: 405 nM)”.
For the molecule B18, the binding result was “no binding (tested: 405 nM)”.
Take B19: the binding result was “no binding (tested: 405 nM)”.
The same measure, in the same setting: with B20 the entry was “no binding (tested: 405 nM)”.
Turning to B21, the binding result was “no binding (tested: 405 nM)”.

For another test, the target named is human CD40 (human, UniProt P25942 21-277). In words: cell-based or functional assay. The source holds these as a separate data set.
Consider B22, for which the “ICAM-1 Cell Assay EC50 (nM), 10% bovine serum” value was 33.5 nM and the “ICAM-1 Cell Assay EC50 (nM), 10% human serum” value was above 1000 nM.
On to B23, for which the “ICAM-1 Cell Assay EC50 (nM), 10% bovine serum” value is 21.4 nM and the “ICAM-1 Cell Assay EC50 (nM), 10% human serum” value was above 1000 nM.

Another test concerns the target T7, cynomolgus serum albumin (cynomolgus, UniProt A2V9Z4 25-608).
T7 construct: Amine-coupled to a CM5 BIAcore chip; also called CSA; Cyno Serum Albumin
The test is described as follows: SPR (BIAcore 3000), CSA amine-coupled on CM5 chip, ILF as analyte, 1:1 Langmuir fit, 25 C.
Description: (§2) A BIAcore™ 3000 instrument (GE Healthcare) was used to analyze the binding kinetics of anti-CD40-AlbudAb ILFs to human and cynomolgus serum albumin. Approximately 400 response units (RU) of human serum albumin (HSA) or cynomolgus serum albumin (CSA) were immobilized on a flow-cell of a CM5 BIAcore™ chip using an Amine Coupling Kit (GE Healthcare). A second flow cell without any ligand immobilized served as a reference flow-cell for inline referencing. An appropriate doubling dilution series of each dAb to be analyzed was prepared in HBS-EP buffer (0.01 M HEPES pH 7.4 with 0.15 M NaCl, 3 mM EDTA and 0.005% v/v Surfactant P20, GE Healthcare). Two hundred microlitres of each ILF were injected in duplicate using the instrument's KINJECT function. The injections were made across the serum albumin-immobilized and reference flow-cells in series, with inline subtraction of the signal from the reference cell. The experiment was performed at 25° C. and a flow rate of 40 μl/min of HBS-EP. After each injection had been completed, the dAb was allowed to dissociate from the ligand in buffer for 120 s before regeneration with a 10 μl injection of 10 mM glycine pH 2.0. A reference injection of HBS-EP buffer blank (containing no analyte) was also injected under the same conditions to serve as a second reference for subtraction from each analyte trace. BIAevaluation 4.1 software (GE Healthcare) was used to subtract both the reference flow-cell trace and the buffer blank trace from each analyte trace.
(§3) The same software was used to perform a simultaneous, global fit of a 1:1 (Langmuir) kinetic model to the association and dissociation phases of the analyte dilution series traces. This model yielded association and dissociation rate constants (kₐ and kd, respectively) and the equilibrium dissociation constant (KD) of the interaction.
As usually defined, the Kd is the concentration at which binding is half-saturated. What is called koff is a measure of how fast the partners let go of each other. By kon is commonly meant the second-order rate constant of association. For B22, the Kd is 2.5 nM and 2.42 nM; the koff was 0.00252 s⁻¹ and 0.00266 s⁻¹; the kon was 1.01e+06 M⁻¹ s⁻¹ and 1.1e+06 M⁻¹ s⁻¹.
Regarding B23, the Kd is 2.38 nM and 2.52 nM; the koff is 0.00281 s⁻¹ and 0.00296 s⁻¹; the kon amounted to 1.18e+06 M⁻¹ s⁻¹.

The target in another test is T8, human serum albumin (human, UniProt P02768 25-609).
T8 construct: Amine-coupled to a CM5 BIAcore chip; also called HSA
T8 sequence (P02768 25-609 limits assumed): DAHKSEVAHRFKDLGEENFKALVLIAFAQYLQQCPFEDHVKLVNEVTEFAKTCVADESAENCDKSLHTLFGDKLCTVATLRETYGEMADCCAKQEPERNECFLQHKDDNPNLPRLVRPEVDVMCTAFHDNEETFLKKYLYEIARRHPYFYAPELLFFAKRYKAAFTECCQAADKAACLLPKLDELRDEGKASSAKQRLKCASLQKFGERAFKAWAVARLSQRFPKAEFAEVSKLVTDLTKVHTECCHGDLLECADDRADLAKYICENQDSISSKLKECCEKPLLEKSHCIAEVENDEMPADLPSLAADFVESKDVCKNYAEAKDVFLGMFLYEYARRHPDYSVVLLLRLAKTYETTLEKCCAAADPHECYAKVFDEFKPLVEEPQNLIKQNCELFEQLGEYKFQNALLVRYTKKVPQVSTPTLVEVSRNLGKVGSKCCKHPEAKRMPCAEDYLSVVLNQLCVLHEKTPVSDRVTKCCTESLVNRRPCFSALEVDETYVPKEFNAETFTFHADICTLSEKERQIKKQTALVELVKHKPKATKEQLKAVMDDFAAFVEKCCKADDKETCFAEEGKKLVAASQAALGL
The test is described as follows: SPR (BIAcore 3000), HSA amine-coupled on CM5 chip, ILF as analyte, 1:1 Langmuir fit, 25 C. On the technique in general: Surface plasmon resonance follows binding to a sensor surface in real time, without labels.
Description: as §2, §3
Take B22: the Kd was 1.21 nM and 1.23 nM; the koff is 0.00133 s⁻¹ and 0.00147 s⁻¹; the kon was 1.1e+06 M⁻¹ s⁻¹ and 1.19e+06 M⁻¹ s⁻¹.
Take B23: the Kd was 1.12 nM and 1.21 nM; the koff is 0.0014 s⁻¹ and 0.0016 s⁻¹; the kon is 1.25e+06 M⁻¹ s⁻¹ and 1.32e+06 M⁻¹ s⁻¹.
